Results: paper PMC8510540

Key:
[1] = target: HIV-1_(YU-2) gp140 trimer; assay: BLI (equilibrium KD)
[2] = target: soluble human FcγRIIIB, biotinylated, tetramerized with streptavidin-PE (UniProt O75015); assay: multiplex assay: antigen-conjugated beads stained with tetramerized receptor; settings: highest antibody concentration point, log10 Ab (nM) about 1.6 (estimated); parent: est. 3.3; read off a plot
[3] = target: soluble human FcγRIIA, biotinylated, tetramerized with streptavidin-PE (UniProt P12318); assay: as above; settings: highest antibody concentration point, log10 Ab (nM) about 1.6 (estimated); parent: est. 4.1; read off a plot
Chain of soluble human FcγRIIA, biotinylated, tetramerized with streptavidin-PE (P12318 34-217): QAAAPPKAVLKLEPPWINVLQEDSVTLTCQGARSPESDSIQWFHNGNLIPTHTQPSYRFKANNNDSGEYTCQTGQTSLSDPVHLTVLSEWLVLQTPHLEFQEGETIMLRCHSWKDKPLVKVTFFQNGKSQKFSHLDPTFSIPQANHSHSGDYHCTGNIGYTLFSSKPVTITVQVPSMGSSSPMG

[4] = target: HIV-1_(YU-2) gp140 trimer; assay: BLI (kinetic KD, value in parentheses)
[5] = target: soluble human FcγRIIB, biotinylated, tetramerized with streptavidin-PE (UniProt P31994); assay: multiplex assay: antigen-conjugated beads stained with tetramerized receptor; settings: highest antibody concentration point, log10 Ab (nM) about 1.6 (estimated); parent: est. 3.4; read off a plot
Chain of soluble human FcγRIIB, biotinylated, tetramerized with streptavidin-PE (P31994 43-217): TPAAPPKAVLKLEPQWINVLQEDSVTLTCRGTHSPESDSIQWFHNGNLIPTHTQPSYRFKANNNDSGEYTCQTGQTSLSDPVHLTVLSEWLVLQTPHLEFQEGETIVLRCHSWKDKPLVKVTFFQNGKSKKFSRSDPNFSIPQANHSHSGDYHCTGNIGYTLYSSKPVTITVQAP

[6] = target: soluble human FcγRIIIA, biotinylated, tetramerized with streptavidin-PE (UniProt P08637); assay: as above; settings: highest antibody concentration point, log10 Ab (nM) about 1.6 (estimated); parent: est. 4.3; read off a plot
Chain of soluble human FcγRIIIA, biotinylated, tetramerized with streptavidin-PE (P08637 17-208): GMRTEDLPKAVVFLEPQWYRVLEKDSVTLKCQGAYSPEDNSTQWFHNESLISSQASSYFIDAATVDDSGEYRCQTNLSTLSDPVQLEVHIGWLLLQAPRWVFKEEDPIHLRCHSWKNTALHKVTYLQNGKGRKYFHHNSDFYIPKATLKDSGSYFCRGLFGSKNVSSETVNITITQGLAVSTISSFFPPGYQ

Chain of soluble human FcγRIIIB, biotinylated, tetramerized with streptavidin-PE (O75015 17-200): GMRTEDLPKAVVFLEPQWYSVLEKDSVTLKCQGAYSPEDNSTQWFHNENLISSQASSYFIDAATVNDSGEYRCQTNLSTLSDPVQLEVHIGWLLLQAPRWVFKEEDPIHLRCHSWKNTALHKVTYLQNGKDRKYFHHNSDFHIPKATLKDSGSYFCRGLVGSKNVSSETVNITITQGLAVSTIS

Row | Substance | Kd [1] [nM] | response [2] [log10 MFI] | response [3] [log10 MFI] | Kd [4] [nM] | response [5] [log10 MFI] | response [6] [log10 MFI]
1 | IgG1 b12 (unmodified Fc) (from UniProt P01857) E430G | 0.9 | 3.1 | 4 | 2.26 | – | –
2 | IgG1 b12 (unmodified Fc) (from UniProt P01857) G236A; S267E; H268F; S324T; I332E | 1.93 | 3.2 | 4.3 | 2.78 | 4.3 | –
3 | IgG1 b12 (unmodified Fc) (from UniProt P01857) K322A | 2.95 | – | – | 2.56 | – | –
4 | IgG1 b12 (unmodified Fc) (from UniProt P01857) L234A; L235A | 2.04 | 2 | 2 | 2.06 | 2 | 3.4
